Assay results reported in US20250257338A1 (JCR PHARMACEUTICALS, published 2025).

Legend:
[1] = target: T1, human mannose-6-phosphate receptor (cation-independent) domain 9 recombinant protein with C-terminal … (human, UniProt P11717 1219-1364); test: BLI (Octet RED96), M6PR domain 9 (His tag) on Ni-NTA biosensor, 1:1 model
T1 construct: Loaded on the Ni-NTA biosensor; also called human M6PR; M6PR
Description: (§1) As the human M6PR, there was used a protein having the amino acid sequence represented by SEQ ID NO: 42, in which restriction enzyme-derived amino acids were added to both ends of the amino acid sequence corresponding to domain 9 from valine at the 1219th position to phenylalanine at the 1364th position from the N-terminus side in the amino acid sequence of a cation-independent mannose-6-phosphate receptor represented by SEQ ID NO: 41, and a histidine tag was further added to the C-terminus thereof.
(§2) In addition, human M6PR was adjusted to a concentration of […] with HBS-P+ to obtain an M6PR (His tag) solution.
(§3) The sample solution for M6PR affinity measurement was added to a 96-well plate, black (Greiner Bio-One International GmbH) at 200 μL/well. The M6PR (His tag) solution was added to predetermined wells at 200 μL/well. HBS-P+ was added to wells for baseline, dissociation, and washing at 200 μL/well. 10 mM Glycine-HCl (pH 1.7) was added to wells for regeneration at 200 μL/well. 0.5 mM NiCl₂ solution was added to wells for activation at 200 μL/well. This plate and a biosensor (Biosensor/Ni-NTA, ForteBio) were placed at predetermined positions in the Octet RED96.

[2] = target: T2, human TfR extracellular region with N-terminal histidine tag, hTfR-ECD (His tag) (human, UniProt P02786 87-760); test: BLI (Octet RED96), hTfR-ECD (His tag) on Ni-NTA biosensor, 1:1 model
T2 construct: Loaded on the Ni-NTA biosensor in the BLI assay; 760 is the known length of human TfR, not a printed number; not shown: histidine tag at the N-terminus
Description: In addition, hTfR was adjusted to a concentration of 25 ng/ml, using HBS-P+ (1% BSA) to obtain an hTfR-ECD (His tag) solution.
as §3, with “for hTfR” for “for M6PR”, “The hTfR-ECD” for “The M6PR”, “HBS-P+ (1% BSA)” for “HBS-P+”, “NiCl₂ (1% BSA)” for “NiCl₂”
Note that the measurement was carried out at a temperature of 25 to 30° C.

[3] = target: T1, human mannose-6-phosphate receptor …; test: BLI (Octet RED96), M6PR (His tag) on Ni-NTA biosensor
Description: as §1, §2, §3

T1 sequence (P11717 other isoform, or with tags, fused parts or gaps limits assumed): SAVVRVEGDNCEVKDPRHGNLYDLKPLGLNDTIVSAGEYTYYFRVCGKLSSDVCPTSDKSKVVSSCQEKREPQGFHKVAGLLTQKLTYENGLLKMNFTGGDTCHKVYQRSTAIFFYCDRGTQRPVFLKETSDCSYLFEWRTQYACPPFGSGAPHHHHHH
T2 sequence (P02786 other isoform, or with tags, fused parts or gaps): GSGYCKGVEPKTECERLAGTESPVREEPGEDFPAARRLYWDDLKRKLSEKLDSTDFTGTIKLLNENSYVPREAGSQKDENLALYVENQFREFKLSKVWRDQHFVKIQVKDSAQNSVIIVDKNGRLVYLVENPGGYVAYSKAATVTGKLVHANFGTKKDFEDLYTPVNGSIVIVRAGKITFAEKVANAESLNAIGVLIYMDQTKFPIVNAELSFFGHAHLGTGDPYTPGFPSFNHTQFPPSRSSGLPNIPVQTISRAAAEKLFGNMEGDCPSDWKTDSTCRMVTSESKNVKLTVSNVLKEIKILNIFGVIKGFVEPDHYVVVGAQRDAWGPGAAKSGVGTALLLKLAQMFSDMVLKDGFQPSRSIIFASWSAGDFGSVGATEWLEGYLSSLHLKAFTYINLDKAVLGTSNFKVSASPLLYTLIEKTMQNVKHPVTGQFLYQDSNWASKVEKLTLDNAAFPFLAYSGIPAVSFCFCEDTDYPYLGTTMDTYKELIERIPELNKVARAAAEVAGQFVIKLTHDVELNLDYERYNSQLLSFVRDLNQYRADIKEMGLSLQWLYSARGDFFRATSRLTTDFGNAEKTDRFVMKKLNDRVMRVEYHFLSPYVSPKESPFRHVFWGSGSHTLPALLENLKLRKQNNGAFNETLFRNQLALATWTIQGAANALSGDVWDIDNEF

Binder | Kd [1] | koff [1] | kon [1] | Kd [2] | koff [2] | kon [2] | binding result [3]
Fab-IDS (WT), fusion protein of wild-type hIDS and an anti-hTfR (Fab) antibody (Fab, N-linked sugar chains containing mannose-6-phosphate (M6P) on the asparagines at positions 221 and 255 of the hIDS portion (numbering of SEQ ID NO: 1), Humanized anti-hTfR Fab; Expressed in ExpiCHO cells) heavy: EVQLVQSGAEVKKPGESLKISCKGSGYSFMNYWLGWVRQMPGKGLEWMGDIYPGGDYPTYSEKFKVQVTISADKSISTAYLQLSSLKASDTAMYYCARSGNYDEVAYWGQGTLVTVSSASTKGPSVFPLAPSSKSTSGGTAALGCLVKDYFPEPVTVSWNSGALTSGVHTFPAVLQSSGLYSLSSVVTVPSSSLGTQTYICNVNHKPSNTKVDKKVEPKSCDKTHTGGGGSGGGGSGGGGSSETQANSTTDALNVLLIIVDDLRPSLGCYGDKLVRSPNIDQLASHSLLFQNAFAQQAVCAPSRVSFLTGRRPDTTRLYDFNSYWRVHAGNFSTIPQYFKENGYVTMSVGKVFHPGISSNHTDDSPYSWSFPPYHPSSEKYENTKTCRGPDGELHANLLCPVDVLDVPEGTLPDKQSTEQAIQLLEKMKTSASPFFLAVGYHKPHIPFRYPKEFQKLYPLENITLAPDPEVPDGLPPVAYNPWMDIRQREDVQALNISVPYGPIPVDFQRKIRQSYFASVSYLDTQVGRLLSALDDLQLANSTIIAFTSDHGWALGEHGEWAKYSNFDVATHVPLIFYVPGRTASLPEAGEKLFPYLDPFDSASQLMEPGRQSMDLVELVSLFPTLAGLAGLQVPPRCPVPSFHVELCREGKNLLKHFRFRDLEEDPYLPGNPRELIAYSQYPRPSDIPQWNSDKPSLKDIKIMGYSIRTIDYRYTVWVGFNPDEFLANFSDIHAGELYFVDSDPLQDHNMYNDSQGGDLFQLLMP light: DIVMTQTPLSLSVTPGQPASISCRSSQSLVHSNGNTYLHWYLQKPGQSPQLLIYKVSNRFSGVPDRFSGSGSGTDFTLKISRVEAEDVGVYYCSQSTHVPWTFGQGTKVEIKRTVAAPSVFIFPPSDEQLKSGTASVVCLLNNFYPREAKVQWKVDNALQSGNSQESVTEQDSKDSTYSLSSTLTLSKADYEKHKVYACEVTHQGLSSPVTKSFNRGEC | 2.32 nM | 0.000586 s⁻¹ | 253000 M⁻¹ s⁻¹ | 0.67 nM | 0.000331 s⁻¹ | 494000 M⁻¹ s⁻¹ | 
Fab-IDS (m1), fusion protein of hIDS mutant muhIDS-1 (T223A, S257A) and an anti-hTfR (Fab) antibody (Fab) heavy: EVQLVQSGAEVKKPGESLKISCKGSGYSFMNYWLGWVRQMPGKGLEWMGDIYPGGDYPTYSEKFKVQVTISADKSISTAYLQLSSLKASDTAMYYCARSGNYDEVAYWGQGTLVTVSSASTKGPSVFPLAPSSKSTSGGTAALGCLVKDYFPEPVTVSWNSGALTSGVHTFPAVLQSSGLYSLSSVVTVPSSSLGTQTYICNVNHKPSNTKVDKKVEPKSCDKTHTGGGGSGGGGSGGGGSSETQANSTTDALNVLLIIVDDLRPSLGCYGDKLVRSPNIDQLASHSLLFQNAFAQQAVCAPSRVSFLTGRRPDTTRLYDFNSYWRVHAGNFSTIPQYFKENGYVTMSVGKVFHPGISSNHTDDSPYSWSFPPYHPSSEKYENTKTCRGPDGELHANLLCPVDVLDVPEGTLPDKQSTEQAIQLLEKMKTSASPFFLAVGYHKPHIPFRYPKEFQKLYPLENIALAPDPEVPDGLPPVAYNPWMDIRQREDVQALNIAVPYGPIPVDFQRKIRQSYFASVSYLDTQVGRLLSALDDLQLANSTIIAFTSDHGWALGEHGEWAKYSNFDVATHVPLIFYVPGRTASLPEAGEKLFPYLDPFDSASQLMEPGRQSMDLVELVSLFPTLAGLAGLQVPPRCPVPSFHVELCREGKNLLKHFRFRDLEEDPYLPGNPRELIAYSQYPRPSDIPQWNSDKPSLKDIKIMGYSIRTIDYRYTVWVGFNPDEFLANFSDIHAGELYFVDSDPLQDHNMYNDSQGGDLFQLLMP light: DIVMTQTPLSLSVTPGQPASISCRSSQSLVHSNGNTYLHWYLQKPGQSPQLLIYKVSNRFSGVPDRFSGSGSGTDFTLKISRVEAEDVGVYYCSQSTHVPWTFGQGTKVEIKRTVAAPSVFIFPPSDEQLKSGTASVVCLLNNFYPREAKVQWKVDNALQSGNSQESVTEQDSKDSTYSLSSTLTLSKADYEKHKVYACEVTHQGLSSPVTKSFNRGEC |  |  |  | 0.678 nM | 0.000331 s⁻¹ | 489000 M⁻¹ s⁻¹ | no binding
Fab-IDS (m2), fusion protein of hIDS mutant muhIDS-2 (N221Q, N255Q) and an anti-hTfR (Fab) antibody (Fab) heavy: EVQLVQSGAEVKKPGESLKISCKGSGYSFMNYWLGWVRQMPGKGLEWMGDIYPGGDYPTYSEKFKVQVTISADKSISTAYLQLSSLKASDTAMYYCARSGNYDEVAYWGQGTLVTVSSASTKGPSVFPLAPSSKSTSGGTAALGCLVKDYFPEPVTVSWNSGALTSGVHTFPAVLQSSGLYSLSSVVTVPSSSLGTQTYICNVNHKPSNTKVDKKVEPKSCDKTHTGGGGSGGGGSGGGGSSETQANSTTDALNVLLIIVDDLRPSLGCYGDKLVRSPNIDQLASHSLLFQNAFAQQAVCAPSRVSFLTGRRPDTTRLYDFNSYWRVHAGNFSTIPQYFKENGYVTMSVGKVFHPGISSNHTDDSPYSWSFPPYHPSSEKYENTKTCRGPDGELHANLLCPVDVLDVPEGTLPDKQSTEQAIQLLEKMKTSASPFFLAVGYHKPHIPFRYPKEFQKLYPLEQITLAPDPEVPDGLPPVAYNPWMDIRQREDVQALQISVPYGPIPVDFQRKIRQSYFASVSYLDTQVGRLLSALDDLQLANSTIIAFTSDHGWALGEHGEWAKYSNFDVATHVPLIFYVPGRTASLPEAGEKLFPYLDPFDSASQLMEPGRQSMDLVELVSLFPTLAGLAGLQVPPRCPVPSFHVELCREGKNLLKHFRFRDLEEDPYLPGNPRELIAYSQYPRPSDIPQWNSDKPSLKDIKIMGYSIRTIDYRYTVWVGFNPDEFLANFSDIHAGELYFVDSDPLQDHNMYNDSQGGDLFQLLMP light: DIVMTQTPLSLSVTPGQPASISCRSSQSLVHSNGNTYLHWYLQKPGQSPQLLIYKVSNRFSGVPDRFSGSGSGTDFTLKISRVEAEDVGVYYCSQSTHVPWTFGQGTKVEIKRTVAAPSVFIFPPSDEQLKSGTASVVCLLNNFYPREAKVQWKVDNALQSGNSQESVTEQDSKDSTYSLSSTLTLSKADYEKHKVYACEVTHQGLSSPVTKSFNRGEC |  |  |  | 0.661 nM | 0.00031 s⁻¹ | 469000 M⁻¹ s⁻¹ | no binding
